Columns and labels:
[1] = target: HLA-DR2 (a mix of DRB1*1501 and DRB5*0101) (Homo sapiens, UniProt P01903+P01911+Q30154); test: DELFIA competitive binding assay, solubilized HLA-DR2; settings: in words, from IC50 / plot of 1/IC50
Source text: Measurement of the IC50 is preferably done by europium-streptavidin dissociation-enhanced lenthanide fluoroimmunoassay (DELFIA) and the IC50 typically calculated by four parameter fit analysis with the software program SOFTmax Pro.

[2] = system: HLA-DR3 (a mix of DRB1*0301 and DRB3*0101); test: DELFIA competitive binding assay, solubilized HLA-DR3; parameters: species or system human; settings: in words, from IC50
Protocol: The sequence of the AChRα subunit is shown with each of the transmembrane regions (M1-M4) indicated by a shaded box.) Ten-fold dilutions (preferably 1-100,000 nM) of unlabeled AChRα peptides were co-incubated at pH 5.5 with the biotinylated myelin basic protein peptide MBP 84-102, and the IC50 of binding to solubilized HLA-DR2 (a mix of DRB1*1501 and DRB5*0101) or HLA-DR3 (a mix of DRB1*0301 and DRB3*0101) was measured. Measurement of the IC50 is preferably done by europium-streptavidin dissociation-enhanced lenthanide fluoroimmunoassay (DELFIA) and the IC50 typically calculated by four parameter fit analysis with the software program SOFTmax Pro. FIG. 2 lists the IC50s of each AChRα peptide binding to HLA-DR2 and HLA-DR3.

Row | Substance | relative affinity for HLA-DR2 [1] | affinity for HLA-DR3 [2]
1 | AChRα 113-126: synthetic peptide fragment of the acetylcholine receptor α subunit, residues 113-126 (TGHITWTPPAIFKS) | high relative affinity | 
2 | AChRα 145-163: synthetic peptide fragment of the acetylcholine receptor α subunit, residues 145-163 (KLGTWTYDGSVVAINPESD) |  | high affinity
3 | AChRα 195-212: synthetic peptide fragment of the acetylcholine receptor α subunit, residues 195-212 |  | high affinity
4 | AChRα 310-327: synthetic peptide fragment of the acetylcholine receptor α subunit, residues 310-327 (NWVRKVFIDTIPNIMFFS) | high relative affinity | 
5 | AChRα 419-437: synthetic peptide fragment of the acetylcholine receptor α subunit, residues 419-437 (IIGTLAVFAGRLIELNQQG) | high relative affinity | 

Reference: patent US20050048066A1, “Identification of potential immunodominant acetylcholine receptor alpha subunit” (priority 2000, published 2005)
